Experimental data from the supplement of paper PMC7877785.
± gives the uncertainty stated by the source.

Test: self-splicing fitness, log relative to wild type (ln ratio); higher = more splicing; Tetrahymena group I intron in knt gene, E. coli kanamycin selection, DiMSum; sequences stand for … in CUCUCU…GGAGGGAAAAGUUAUCAGGCAUGCACCUGGUAGCUAGUCUUUAAACCAAUAGAUUGCAUCGGUUUAAAAGGCAAGACCGUCAAAUUGCGGGAAAGGGGUCAACAGCCGUUCAGUACCAAGUCUCAGGGGAAACUUUGAGAUGGCCUUGCAAAGGGUAUGGUAAUAAGCUGACGGACAUGGUCCUAACCACGCAGCCAAGUCCUAAGUCAACAGAUCUUCUGUUGAUAUGGAUGCAGUUCACAGACUAAAUGUCGGUCGGGGAAGAUGUAUUCUUCUCAUAAGAUAUAGUCGGACCUCUCCUUAAUGGGAGCUAGCGGAUGAAGUGAUGCAACACUGGAGCCGCUGGGAACUAAUUUGUAUGCGAAAGUAUAUUGAUUAGUUUUGGAGUACUCGUGGUCG
How it was run: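 DiMSum derived fitness as the error-weighted combination of fold changes across replicates, kanamycin versus no kanamycin, normalised to wild type. E. coli BL21(DE3) held the library, which randomised all eight P1ex-region intron nucleotides within the knt kanamycin-resistance gene on pET-22b(+). Six replicate transformations grew overnight at 37°C or 30°C on LB agar with or without 25 μg/mL kanamycin, also containing 100 μg/mL carbenicillin, 50 μM IPTG and 0.2% rhamnose, and pooled colonies were amplicon-sequenced on an Illumina HiSeq 2500.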

Row | Sequence | self-splicing fitness (ln) (30 °C) | self-splicing fitness (ln) (37 °C)
1 | UGUGAGCAAUAUUACGAAGG | -3.98 ± 0.33 | -2.19 ± 0.3
2 | GCCAAGCAAUAUUACGGAGC | -3.32 ± 0.1 | -2.38 ± 0.12
3 | CAGAAGCAAUAUUACGAGUC | -3.79 ± 0.48 | -2.16 ± 0.32
4 | UCCCAGCAAUAUUACGCGCC | -3.11 ± 0.35 | -1.29 ± 0.21
5 | CAAGAGCAAUAUUACGGGUA | -3.26 ± 0.4 | -1.64 ± 0.28
6 | GUAAAGCAAUAUUACGGUCG | -0.377 ± 0.056 | -0.0786 ± 0.088
7 | AUAAAGCAAUAUUACGCUCG | 0.147 ± 0.1 | 0.699 ± 0.13
8 | GCUCAGCAAUAUUACGUCCC | -0.208 ± 0.24 | 0.272 ± 0.24
9 | GACGAGCAAUAUUACGCAUU | -2.74 ± 0.21 | -2.44 ± 0.21
10 | UAUCAGCAAUAUUACGAGUG | -0.353 ± 0.058 | -0.197 ± 0.072
11 | AGCCAGCAAUAUUACGAUUA | -2.22 ± 0.27 | -2.48 ± 0.28
12 | GCAAAGCAAUAUUACGAAAG | -2.86 ± 0.19 | -1.94 ± 0.21
13 | AGUUAGCAAUAUUACGUCAU | -2.48 ± 0.1 | -1.81 ± 0.13
14 | ACUGAGCAAUAUUACGUCGA | -3.59 ± 0.22 | -2.07 ± 0.18
15 | GCCGAGCAAUAUUACGUGCA | -2.31 ± 0.25 | -2.24 ± 0.18
16 | AUCUAGCAAUAUUACGGCAU | 0.455 ± 0.096 | 0.24 ± 0.1
17 | CUAUAGCAAUAUUACGGUAG | -2.21 ± 0.14 | -2.58 ± 0.2
18 | CUUUAGCAAUAUUACGACAU | -3.762 ± 0.032 | -2.81 ± 0.043
19 | CCGUAGCAAUAUUACGGCGA | -2.54 ± 0.21 | -2.62 ± 0.25
20 | GAAUAGCAAUAUUACGCGUG | -1.01 ± 0.075 | -0.747 ± 0.094

Row | Sequence | self-splicing fitness (ln) (30 °C) | self-splicing fitness (ln) (37 °C)
21 | UAGAAGCAAUAUUACGUUGG | -2.54 ± 0.14 | -1.55 ± 0.14
22 | CAGUAGCAAUAUUACGCACU | -2.19 ± 0.18 | -1.34 ± 0.17
23 | CGUUAGCAAUAUUACGCGAA | -3.36 ± 0.41 | -3.1 ± 0.43
24 | UGCUAGCAAUAUUACGCACA | -1.12 ± 0.13 | 0.22 ± 0.11
25 | UUUCAGCAAUAUUACGGGGA | -2.43 ± 0.24 | -0.33 ± 0.16
26 | GAUCAGCAAUAUUACGAAAG | -0.98 ± 0.14 | -1.2 ± 0.24
27 | GAAAAGCAAUAUUACGCAAC | -2.92 ± 0.16 | -0.437 ± 0.16
28 | UGACAGCAAUAUUACGCUUU | -3.43 ± 0.2 | -2.54 ± 0.26
29 | UAGGAGCAAUAUUACGAUAG | -4.07 ± 0.28 | -1.95 ± 0.2
30 | GCUCAGCAAUAUUACGUCGG | -2.71 ± 0.14 | -0.555 ± 0.15
31 | AGACAGCAAUAUUACGGCGA | -0.438 ± 0.069 | -0.143 ± 0.083
32 | AUCCAGCAAUAUUACGGGCC | -1.23 ± 0.2 | -1.24 ± 0.33
33 | AGAGAGCAAUAUUACGCAAG | -3.46 ± 0.3 | -2.29 ± 0.3
34 | AAACAGCAAUAUUACGUUCU | -0.831 ± 0.061 | -0.0204 ± 0.077
35 | AACUAGCAAUAUUACGUGUA | -2.2 ± 0.09 | -0.888 ± 0.09
36 | CUCCAGCAAUAUUACGCGUC | -3.46 ± 0.28 | 
37 | AUCCAGCAAUAUUACGUCUU | -0.371 ± 0.065 | 0.716 ± 0.081
38 | CACGAGCAAUAUUACGAACA |  | -2.04 ± 0.47
39 | UUUUAGCAAUAUUACGCGAG | -1.15 ± 0.077 | -0.226 ± 0.097
